From patent publication US20230265146A1
Several values for one entry are separate records, joined by “and”; a condition that tells them apart may be missing. Equal values may be shown once.

Target: human IL-12 receptor on HEK-Blue IL-12 reporter cells (human) (UniProt P42701)
Sequence (Q99665 24-862, chain 2 of 2, other chains not shown): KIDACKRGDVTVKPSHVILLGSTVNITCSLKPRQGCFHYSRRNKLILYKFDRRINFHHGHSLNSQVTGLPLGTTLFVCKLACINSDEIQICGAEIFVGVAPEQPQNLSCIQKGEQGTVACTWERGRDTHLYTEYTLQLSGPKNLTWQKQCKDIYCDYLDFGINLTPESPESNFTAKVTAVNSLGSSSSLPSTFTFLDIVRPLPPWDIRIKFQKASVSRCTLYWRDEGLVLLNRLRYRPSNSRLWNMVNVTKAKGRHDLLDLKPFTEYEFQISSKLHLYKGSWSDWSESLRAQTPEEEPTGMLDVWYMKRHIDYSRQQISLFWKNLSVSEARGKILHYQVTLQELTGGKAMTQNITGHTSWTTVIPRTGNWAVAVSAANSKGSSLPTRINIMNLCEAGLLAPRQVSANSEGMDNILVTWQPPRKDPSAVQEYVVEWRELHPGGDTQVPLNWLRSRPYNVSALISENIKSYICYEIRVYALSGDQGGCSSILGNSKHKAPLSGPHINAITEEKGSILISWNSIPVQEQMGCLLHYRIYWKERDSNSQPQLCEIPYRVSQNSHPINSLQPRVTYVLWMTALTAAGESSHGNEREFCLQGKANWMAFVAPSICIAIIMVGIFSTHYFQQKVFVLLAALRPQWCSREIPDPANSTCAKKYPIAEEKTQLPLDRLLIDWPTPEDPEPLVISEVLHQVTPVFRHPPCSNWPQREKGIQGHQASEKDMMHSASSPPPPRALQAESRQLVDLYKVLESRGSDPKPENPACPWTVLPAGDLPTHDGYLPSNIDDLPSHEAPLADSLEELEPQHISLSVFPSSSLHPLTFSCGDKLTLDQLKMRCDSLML

EC50 (read off the curve): 90 pM and 50 pM
Substance: IL12 (ligand)
